Patent publication US20250152730A1, “ANTI-TM4SF1 ANTIBODY-DRUG CONJUGATES COMPRISING CLEAVABLE LINKERS AND METHODS OF USING SAME” (Angiex, Inc., priority 2022, published 2025)

T1: human TM4SF1 (transmembrane-4 L six family member-1) on HUVEC cells (UniProt P30408 1-202)
T1 chain: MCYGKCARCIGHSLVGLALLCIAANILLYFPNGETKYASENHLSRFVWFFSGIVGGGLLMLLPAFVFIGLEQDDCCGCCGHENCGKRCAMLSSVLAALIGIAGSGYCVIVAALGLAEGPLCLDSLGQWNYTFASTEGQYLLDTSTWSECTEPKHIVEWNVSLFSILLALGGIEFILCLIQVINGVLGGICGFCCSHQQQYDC

B1: AGX-A07 variant comprising Fc region mutation N297C (antibody, V domains shown)
VH: QIQLVQSGPELKKPGETVKISCKASGYTFTNYGVKWVKQAPGKDLKWMGWINTYTGNPIYAADFKGRFAFSLETSASTAFLQINNLKNEDTATYFCVRFQYGDYRYFDVWGAGTTVTVSS
VL: QIILSQSPAILSASPGEKVTMTCRANSGISFINWYQQKPGSSPKPWIYGTANLASGVPARFGGSGSGTSYSLTISRVEAEDAATYYCQQWSSNPLTFGAGTKLELR
B2: AGX-A07 variant comprising Fc region mutations N297C, M252Y, S254T and T256E (antibody, V domains shown)
VH: B1 VH
VL: B1 VL
B3: A07C: AGX-A07 anti-TM4SF1 antibody with Fc region mutation N297C (the “C” variant) (antibody, V domains shown)
VH: B1 VH
VL: B1 VL
B4: A07-YTEC: AGX-A07 with N297C in combination with M252Y, S254T, and T256E (the “YTEC” variant) (antibody, V domains shown)
VH: B1 VH
VL: B1 VL
B5: AGX-A07 anti-TM4SF1 antibody (without Fc region mutations) (antibody, V domains shown)
VH: B1 VH
VL: B1 VL
B6: A07-wt: AGX-A07 anti-TM4SF1 antibody without Fc region mutations (antibody, V domains shown)
VH: B1 VH
VL: B1 VL

Legend:
[1] = in vivo; cited from earlier work
[2] = metabolite of trastuzumab emtansine (Kadcyla); every 2 weeks; cited from earlier work
HUVEC (endothelial cell) = assay: In vitro cell proliferation inhibition (killing) assay, HUVEC; assay type: cell-based, human; conditions: 5 days incubation
Method: Cells are incubated with antibody conjugate at various concentrations. The concentrations evaluated include a control, and five-fold dilution starting from 333.335 nM (333.335 nM, 66.667 nM, 13.334 nM, 2.667 nM, 0.533 nM (533.3360 pM), 106.6672 pM, 21.3334 pM, 4.2667 pM. Briefly, cells are seeded into 96-well plates a day before the antibody conjugates are added, whereupon cell viability is measured by PrestoBlue (ThermoFisher Scientific) through a plate reader (Varioskan™ LUX multimode microplate reader) five days after treatment with serial dilutions of the antibody conjugates. Cells are treated with media only or isotype matched control antibodies, as a negative control. The EC50 values are generated via GraphPad.
The effects of antibody drug-conjugates (drug to antibody ratio (DAR) varying from 1.8 to 4.2) containing a drug (maytansine) were assessed in cultured mouse (MS1) and human (HUVEC, A549, MiaPaCa2 and SKOV3) cells. Characteristics of the Exemplary Antibodies 1-5, each of which contains human IgG1 constant region with YTEC mutation, can be found in Table 3A. Cells were incubated for 5 days with the antibody drug conjugate before assessing cell viability on day 5.

[3] = target: T1, human TM4SF1 (transmembrane-4 L six …); assay: flow cytometry cell binding; HUVEC cells
[4] = Hydrophobicity by hydrophobic interaction chromatography (HIC); assay type: physicochemical; design: unit not given here; conditions: for Hydrophobicity (HIC), Average: average of 3 runs
Method: The hydrophobicity of exemplary anti-TM4SF1 antibodies, and their Fc mutation containing variants were assessed in this study, using hydrophobic interaction chromatography. The tested antibodies were AGX-A07 (the “wt,” “C,” and “YTEC”); MS (the “wt,” “C,” and “YTEC”). An anti-Her2 antibody with an Fc mutation was used as a control. Both in case of AGX-A07 and the murine surrogate anti-TM4SF1 antibody, it was observed that the hydrophobicity increased with the “C” and “YTEC” mutations.

Molecule	EC50 [3] [nM]	Hydrophobicity (HIC), Run 1 [4]	Hydrophobicity (HIC), Run 2 [4]	Hydrophobicity (HIC), Run 3 [4]	Hydrophobicity (HIC), Average [4]	other results
COc1ccc(/C=C\c2cc(OC)c(OC)c(OC)c2)cc1OP(=O)(O)O [CA4P, Combretastatin]						Patients who experienced heart attacks while being treated [1]: seven
COc1cc2cc(c1Cl)N(C)C(=O)CC(O)C1(C)OC1C(C)C1CC(O)(NC(=O)O1)C(OC)/C=C/C=C(\C)C2 (stereo not drawn) [Maytansinol, maytansinol]						Found in plasma [2]: 7%
BrAc-Galactose-Sar-N-Me-Alanine-DM1 [Free LP]						EC50 (HUVEC (endothelial cell)): 906 nM
B1	2.3					
B2	1.75					
B3		5.614	5.591	5.606	5.60	
B4		5.781	5.77	5.888	5.81	
B5	2.16					
B6		5.547	5.523	5.568	5.55	
